Experiment: label from the status in PepcDB records

| Sequence | protein production |
| --- | --- |
| MSTDIDCIVIGAGVVGLAIARALAAGGHEVLVAEAAEGIGTGTSSRNSEVIHAGIYYPADSLKARLCVRGKHLLYEYCAARGVPHQRLGKLIVATSDAEASQLDSIARRAGANGVDDLQHIDGAAARRLEPALHCTAALVSPSTGIVDSHALMLAYQGDAESDGAQLVFHTPLIAGRVRPEGGFELDFGGAEPMTLSCRVLINAAGLHAPGLARRIEGIPRDSIPPEYLCKGSYFTLAGRAPFSRLIYPVPQHAGLGVHLTLDLGGQAKFGPDTEWIATEDYTLDPRRADVFYAAVRSYWPALPDGALAPGYTGIRPKISGPHEPAADFAIAGPASHGVAGLVNLYGIESPGLTASLAIAEETLARLAALEHHHHHH | not failed |
| MSTDNLLQPKLIEATLGDYPVIQNMARFYVYDMSRYCGFISEEWTCPPDGLYESYDFKIYFTDPERKAFLIQIDNELAGFALLNKFGIQAVDWSMGEFFILAKFQGKGIGQSVAHQLWRTHPGEWEISVIPENIPALSFWRQAVMTYTL | not failed |
| MSTDSVRSSTTGGSASGARTFCSLADLSTKKCVPCNAKDLRAMTEQSAQDLLQKVAGWDLANDNDTLKLHRSWRVKSFTKGLDFFQRVADIAESEGHHPDLHLVGWNNVKIEIWTHAIGGLTENDFILAAKINELQVEDLLRKKKVAK | failed |
| MSTDTSGVGVREIDAGALPTRYARGWHCLGVAKDYLEGKPHGVEAFGTKLVVFADSHGDLKVLDGYCRHMGGDLSEGTVKGDEVACPFHDWRWGGDGRCKLVPYARRTPRMARTRSWTTDVRSGLLFVWHDHEGNPPDPAVRIPEIPEAASDEWTDWRWNRILIEGSNCRDIIDNVTDMAHFFYIHFGLPTYFKNVFEGHIASQYLHNVGRPDVDDLGTSYGEAHLDSEASYFGPSFMINWLHNRYGNYKSESILINCHYPVTQNSFVLQWGVIVEKPKGMSEEMTDKLSRVFTEGVSKGFLQDVEIWKHKTRIDNPLLVEEDGAVYQLRRWYEQFYVDVADIKPEMVERFEIEVDTKRANEFWNAEVEKNLKSREVSDDVPAEQH | not failed |
| MSTFAFNLGGEFDKSFLSTPKAYGDVIKALPQNASKIELDYASVYDYDTDGCYATAAISPDGTTNPGLSLGGSPESVCRDVNRLENSNTYSRAKSNNGWTAIMYASYFEKDQSTSGPVALGHRHDWEHTIVWVKDSQVQYVTYSAHGNWYTNPRSNVRFDGNHPKIVYHKDGGSTHAFRLANSNDEPPENYYHQWLQLPMVGWNGYPSPNIREKLMTTNFGDATLEIKDGRFEKALANAKPPINFDPYAPELEDGGTYQIVSILNNSSVVDLNQADGNVQLWQNGNANNQKWKLVYDSNKSAYQIKNIANQNLVLTWNNLNGSNNVVATTNQNKEEQYWIPTEAGNGYYYVRNKKDQNKVLDVSGYGTANGTNVTVYNFHGGNNQTFQLSNVTGTLTREVESLYKAQPGQTSRSSNNFSLEHLAAGTKVRVVLEGAGATSLSFKIARDKSGTDPVIWSNVRDGSILTIPSGDDRKNLYIAGPPSGYTSNGTFKVKFYALPN | failed |
| MSTGATIVIDLGKTLSKVSLWDLDGRMLDRQVRPSIPLEIDGIRRLDAPDTGRWLLDVLSRYADHPVTTIVPVGHGAGIAALTDGRLAFPPLDYEQSIPEAVMADYRSQRDPFARTGSPALPDGLNIGSQLWWLDQLHPDVMANATLLPWAQYWAWFLTGRAVSEVTSLGCHSDLWDPQDGDFSPMAKRLGWAARFAPIVRAGDTVGALLPAIAERTGLSPDVQVLAGLHDSNAALLAARGFAEIADNEATVLSTGTWFIAMRLPATPVDTATLPEARDCLVNVDVHGRPVPSARFMGGREIETLIEIDTRRVDIKPDQPALLAAVPEVLRHGRMILPTLMRGFGPYPHGRFAWINRPEDWFERRAAACLYAALVADTALDLIGSTGRILVEGRFAEADVFVRALASLRPDCAVYTANAHNDVSFGALRLIDPGLRPQGELVRIEPLDTGSWADLDTYRNRWQAEVEAAKVEPITLEHHHHHH | not failed |
| MSTLISTPRTKMSPIRAEDWALFQRLHIEPSVISLCFDKPDERVLRDKFESRLASWTPECDHWLCLTIFDANTQQPIGITGFVLEEDKAEVGYLLLPEFHGQQFGTETLNALLHWAETTHDILRFSATVTEGNVASERVLTKCGFELSQVIPDAYQIGGKHYADKIYSRQK | failed |
| MSTNEITKRLPNLTSRRALLLYSLPVLVAIGVSHSLKESSLTKTIALNLPESQVVERILDATTAEVVTPPNFEYQIQAGDNLSTIFSQLGFGYSSLMKVMETDLNYLALDTLKPGNTLRFWRNDATGELEKMELQFSIADKVVYQLNSDGGYDFTDISIPGVWRQEPLVGVIQGSFSSSANRLGLSSAEISQVVSLLKEQVNFGRDLRAGDRFEVVRRSQTINGVSTGKNEIEAIKIYNRGREITAYLHTDGQFYNAKGESLQRAFQRYPVSRSWRISSGFNPNRLHPVTGRVAP | failed |
| MSTPIDTYWRLRLTEVAESLRANNFAVSLVDSCEEAGRVFLDDLLPASGASSVSFGGSMTLVKCGVPEALRQRADLQLLDTFDKNLSAAEMYERRRQSLLVDMFLTGTNAVTMDGKLINLDMIGNRVGAINFGPRNVVLFVGRNKVVDTVEDGMRRIKEYASPVNAIRLDKKTPCKKTAQCMDCKSPDRICNVWTITEKCFPSGRVHVILINEDAGY | failed |
| MSTPRQILAAIFDMDGLLIDSEPLWDRAELDVMASLGVDISRRNELPDTLGLRIDMVVDLWYARQPWNGPSRQEVVEQVIARAISLVEETRPLLPGVREAVALCKEQGLLVGLASASPLHMLEKVLTMFDLRDSFDALASAEKLPYSKPHPQVYLDCAAKLGVDPLTCVALEDSVNGMIASKAARMRSIVVPAPEAQNDPRFVLANVKLSSLTELTAKDLLG | not failed |
| MSTPYRPAMHHAWRLLPLGMAVASPLLAAEPLNLDAVNVTGFSEQESASDYRAGRASIYGLDQALLLDTPASVSVFSEALIKDRQAKLLSDVLRNDASVGEGYAPVGYYENFVVRGFSLNAANSYRINGRSIAGEQNVALENKQQVELLKGLSGLQSGVSEPGGVINYQTKRAQD | failed |
| MSTQENVQIVKDFFAAMGRGDKKGLLAVSAEDIEWIIPGEWPLAGTHRGHAALAALLQKASEMVEISYPEPPEFVAQGERVLVVGFATGRVKSTNRTFEDDWVFAITVRKSKVTSIREYIDTLALARATNFNAT | not failed |
| MSTRPERERASTSTDAVLQATVALSAGHKPAFRGFVKDPPRARAHAAAMFVSNAREAEPFVAPDLSEIRVLVDRATVGVASVSLAHATVAAGAETVWHRLQATDEIYFVLSGRGLVSVGDESGEVGPGDAVWIPAGVPQKIRALGSVPLTFLCAWGPAYLPERDQRMGEAAVIGAWPLEHHHHHH | not failed |
| MSTVEKIQTFIILFAVTCGIVLGQFHLIHMYSEQFIVPFLFFMLYGLFLSIPLKEIKNGFRNLKFAGTSLTINFLWTPLLAWGLGALFLSDHPALWVGFIMLMVTPCTDWYLIFTEIAKGNVALSTAILPVNLILQVLLLPIYLFLFAGVMKTVAVSVLVESIVIVIVLPFLLAHATKFIMNKLKKAETLENKLIPFFSSAQIVFLSLAIVAMFASQGKYLLQNMNVVLLLLIPVLLFFIINFVLGQFIGRVMRLSYKDTVSLNLTTLARNSPVALAIAVTAFPNEPLIALALVIGPLIELPVLACVSQVLLLIKKKKQYT | failed |
| MSTVNNHRVVIRRRKVRRGGHHGGSWKIAYADFITAMMAFFLVMWLISIVPREELKGIAEYFRMPLRVALTGGPSSSAETSAIPGGGQDPLRSQGDVRRAEGNRVEAQPMGDAERRDRHRLERLKVRLENLIEESPVLKNFRPQLLIDMTTEGLRIQIVDNQNRPMFATGSADVQPYMRDILRELGPVLNDLPNKISIAGHTDASQYARGERAYSNWELSADRANASRQELVAGGMHEGKVLRIQGLASSMSLVKDDPFAAVNRRISLVVLNASTQRRIENENAAAADVNARDAQGVGAALAGQLAASGSDGGAR | failed |
| MSVCTAHHPMTSPLPPFPLQQRLSRRTLLRFITHTAGIALLNPIGLAQSAPRAGKPPASSSDFISRRPPQAQRRFVSAAVEQQLIHIKAKIADPELAWLFENCYPNTLDTTVSTGTRNGKPDTFIITGDIQALWLRDSAAQVQAYVPLARHDPALRRLFHGLIQRHAACIRLDPYANAFLPDGVSHPLKWSVNDVTQMQPGIGERKWEIDSLCYPIRLAHAYWRASDDIAPFDEDWRQAMHIVLRTFGEQQRLQTPGPYTFQRPALRATETLMLEGYGAPTRPNGMLHSMFRPSDDACTYPLSVPENLFAVITLRQLAAMSEAIHHDAAFASQCRSLAHEIAQATQQFGLMHDADNHPFWAYEVDGYGNQLFMDDANAPSLLSLAYLGCCTSTDPVFLRTRDLAWSARNPYFCQGRAAVGVGSPHTGRHTIWPMSLIHYALSSHDDTQIQHCLHWLKTTHAGTGFMHEAFHQDDPSTFTRSWFAWANSLFGELIVDLAQRKPHLLGVNRSAALLHG | failed |
| MSVDIVHLADSELGKIVALLATSITIVPLFKRLGLGSVLGYLVAGCLIGPSVLGLFQNPQSIVHMAELGVVMFLFIIGLEMHPELLWSMRKAIFGRGFLQVLTCGTLLTFAGIHLIGLTTAVAFVVGAGFTLSSTAIVMQVLEDKGISSAPKGQRIVSTLLFEDLAIVPLLASMTFLAPSTEGATTGINSAAISIAVIGIIILVASSKWIMNPLFRMISKAKVREMMTAAALLVVLGAALLMELSGLSMAMGAFVAGVMLSESSFRHQLEADIEPFRGLLLGLFFMGVGMSLDLKFVFDDLFLLLSLVVILVLGKAISVYVIGLLTLLSHREALMRMSIMSHGGEFAFVLFSAAAAVGILDEDQQATFTAAVIISMLLSPLVVLMVQRIMTRKAKPEAPSMAGIEVAEDLENSVIVIGFGRFSQIVCQILLARGITVTVIDANTDRIRAAARFGFKVYYGDGTRLDVLRASGLAKADCVVLGINDPTRSASIVEQIKHEFPLMPIFARTYDRYSAIQLTKLHVDFQIRETFESALVLSKATMMKLGIDEVEALEVIESVRVLDKERFKEELIYGTSAELIRKYFTPKPLVKPQQPAEALNEYAAEILAETDESQHCQDNLNKKADV | failed |
| MSVEPTSVDPSPDKSAPANASGRADASARPSTGESARPSGGETPEVLRPHAEVTFAAELAALAAQDDRPRPVRWRLSPWAVATYLLGGTLPDGTVITPKYVGPRRIVEVAVTTLATDRALLLLGVPGTAKTWVSEHLAAAVSGDSTLLVQGTAGTPEEAIRYGWNYAQLLAHGPSRDALVPSPVMRAMADGMTARVEELTRVPADVQDTLITILSEKTLPIPELGQEVQAVRGFNLIATANDRDRGVNELSSALRRRFNTVVLPLPESADAEVDIVSRRVDQIGRSLDLPAVPDGVDEIRRVVTVFRELRDGVTTDGRTKLKSPSGTLSTAEAISVVTNGLALAAHFGDGVLRASDVAAGILGAVVRDPAADRVIWQEYLEAVVRERDGWMDFYRACREVSALEHHHHHH | not failed |
| MSVFMDLNIINSSDKNRLKHIIETAAHLGYSTVAINYVVEPLQKKQEIPNPQSISDLFDKFPVVQGKSSPIKVLNRLTIVASDASHFRPTNEYKKFDLVAVYPKTEKLFHAACMTFDVDIICIAVTEKQPFHFKRAPVNGAIDRGIFFETCYAAAIRDSITRRYTIANAICLMEICKGKNVIVSSGAERQLELRGPYDIANLGLVFSLSEGDAKAAVSTNCRSVLLHGETRATASGVIHTMKKPQILQKEEEETPAAKKARTELA | failed |
| MSVHHAERFLPFSDLQMFTLVADVERYPQFVPWWIAARVIDSRPAPAGDGPDAKIYRTDQVIGMGPVRLRFTSRTLLVSPRRISVASQGGGPVRDLSLDWWFDAQPGGCLTRLDMTLDLGSRSLENLLAGMSSEAAVKLVDAFERRAHALYQGG | failed |
| MSVIKLKSKLKYCHYAYDDEGYVIHMLTSNERTFFTNAYIIETKNSIVVVDTLMVNSDAILLRQYMDNINKPLIAVIITHGHPDHYNGTEIITGFKEVPIISTKGIRDCIQDTVDSKEVKWKPYFGQDWPEHKILPNQLVIDSEVVNLDGLDYSFRDLGAAESSSDLFFTLGEKRSVIFVGDVVFNNMHGFMNDGNSAQWLKVLQKLLTEIADVKLLFTGHGDPGDTHQLVQRQIDYISHYRSNLLAIIRGNQLLNDTQKQSFEQLMMANYPEFQLSSFIKAGIDAVSQELIVEQNDKP | failed |
